This note sets out measurements from paper PMC314469, “Protein Interaction Networks by Proteome Peptide Scanning” (PLoS Biology, 2004).

T1: Abp1 SH3 (ABP1_YEAST), P15891
T1 chain: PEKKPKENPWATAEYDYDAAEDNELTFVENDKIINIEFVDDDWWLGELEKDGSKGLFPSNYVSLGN

The experiment has as its target T1, Abp1 SH3 (ABP1_YEAST), P15891. The experiment is described as follows: SPOT array.
Consider PSNDRSAPKNIKP [YNL139C 1426-1438], for which the normalised SPOT signal, Boehringer light units (BLU); mean over the file's lines of this peptide amounted to 86.5. Under QLRNELIKQGPKRP [YMR072W 33-46] stands 212; under PTTLKRPPLSSRP [YDR389W 56-68], 6140; under PTAVFLRLISPTRP [YOR249C 37-50], 37.3. Under PQQLQQQPNGQRP [YPL204W 411-423] stands 128. Under QGLKLTVPKKIKP [YHR031C 197-209] stands 1000.

Consider PRDTIIGHGLPYKP [YLR224W 322-335], for which the normalised SPOT signal, Boehringer light units (BLU); mean over the file's lines of this peptide amounted to 46.8. In the case of PYNYLQRPFIVKP [YML113W 199-211] it was 206. Under QLATSLYPDIYKP [YFL007W 1286-1298] stands 86.3; under PRIPRLVPRWEKP [YDL066W 131-143], 3910.

In turn, PSVVSSSESQPSKP [YML109W 615-628] gave a normalised SPOT signal, Boehringer light units (BLU); mean over the file's lines of this peptide of 23.6. In the case of QLPNPAMPLLHRP [YER169W 386-398] it was 160. Under PRETAAGPANIRP [YOL019W 423-435] stands -0; under QDYGSISPSNIRP [YER132C 1035-1047], 0. In the case of QIGSVATSGIPARP [YLR138W 520-533] it was 66.6; in that of PVFMAIKQHSPDKP [YGR271W 1358-1371], 790. With PRMGHVFPLETRP [YPR118W 222-234], the normalised SPOT signal, Boehringer light units (BLU); mean over the file's lines of this peptide came to 4090. In the case of PRQVAVDPKTGKP [YKR001C 550-562] it was 32.3; in that of QHNTSSSRRGPGRP [YDR310C 197-210], 579. Molecule PVPELDIKQGPVRP [YDL095W 15-28] yielded a normalised SPOT signal, Boehringer light units (BLU); mean over the file's lines of this peptide of 183. Under PTSDRLQLLKPFKP [YLR304C 557-570] stands 920; under QAHVQTNPQVPKP [YPR129W 112-124], 0; under QKNYVYGRQDPKKP [YNL137C 407-420], 147. Under QEENKLEESVPTKP [YIL072W 279-292] stands 88; under PRGAPGMPEMLKP [YJR016C 466-478], 146. On to PVFVTDYPRLSKP [YCR024C 376-388], for which the normalised SPOT signal, Boehringer light units (BLU); mean over the file's lines of this peptide amounted to 93.5. In the case of QLTTEVWRKVPMKP [YCR032W 1846-1859] it was 897; in that of QFIKAGVPIGRKP [YGR112W 321-333], 7910; in that of QIREDQQEVPPQRP [YMR160W 21-34], 74.4. In the case of PVTMRVHPKNGKP [YLR304C 734-746] it was 1700; in that of PTTSIGFPALEKP [YLL022C 355-367], 49.2.

On to QEYGGQKPELSKP [YHL032C 439-451], for which the normalised SPOT signal, Boehringer light units (BLU); mean over the file's lines of this peptide turned out to be 58.1. As for PYTAKGAPIISKP [YOL061W 103-115], the normalised SPOT signal, Boehringer light units (BLU); mean over the file's lines of this peptide was determined as 127. QFRDDSLPPKSKP [YIL091C 357-369]: the normalised SPOT signal, Boehringer light units (BLU); mean over the file's lines of this peptide was determined as 196.

Molecule PQYDEIHIPAPSKP [YER172C 458-471] yielded a normalised SPOT signal, Boehringer light units (BLU); mean over the file's lines of this peptide of 36.2. In the case of PVIMWVPSMYPVKP [YCL008C 82-95] it was 94.4; in that of QLDMDMYPYKLKP [YLR375W 257-269], 57.3; in that of QLQKKNDRPSPLKP [YKL101W 857-870], 347. QKNVIHRAARPTRP [YLR029C 32-45] returned a normalised SPOT signal, Boehringer light units (BLU); mean over the file's lines of this peptide of 253. In the case of QDKRNLRSNAPTKP [YLR263W 598-611] it was 67.5; in that of QDFKSPLENDPNRP [YPL188W 113-126], 41.4; in that of QEQQNKAPEKPKP [YGL105W 194-206], 46.6. In the case of QISWNGIPKIHRP [YOR070C 275-287] it was 1750; in that of PRIPRLVPQWEKP [YLR174W 115-127], 698; in that of QILLPTNPTLDKP [YNR010W 13-25], 135. The molecule QEAVNSSPSEFRP [YOR299W 396-408] came in with a normalised SPOT signal, Boehringer light units (BLU); mean over the file's lines of this peptide of 165. In the case of PVSSRKAVEPPRKP [YDR464W 340-353] it was 479; in that of PRTYSKTYSTPKRP [YBR189W 5-18], 88.1; in that of QEDPISNFLPPPKP [YBR108W 580-593], 114.

Regarding QIIETPYPPTQKP [YJL208C 31-43], the normalised SPOT signal, Boehringer light units (BLU); mean over the file's lines of this peptide worked out at 55. In the case of PTLEDHTPPEDKP [YHR001W-A 64-76] it was 81.

QAPSMGIPQQNRP [YOR181W 300-312] displayed a normalised SPOT signal, Boehringer light units (BLU); mean over the file's lines of this peptide of 117. Under QFMSAGLPQVAKP [YLR304C 105-117] stands 140; under PTDIQLKNLFPLKP [YPL243W 519-532], 128.
